Molecular target: the molecule itself
Test: AUC

B1: endo_N-BAR L187C (C108A) labeled with A488 (domain or fragment, rat, UniProt O35179 1-247, looked up)
chain: MSVAGLKKQFHKATQKVSEKVGGAEGTKLDDDFKEMERKVDVTSRAVMEIMTKTIEYLQPNPASRAKLSMINTMSKIRGQEKGPGYPQAEALLAEAMLKFGRELGDDANFGPALGEVGEAMRELSEVKDSLDMEVKQNFIDPLQNLHDKDLREIQHHLKKLEGRRLDFDYKKKRQGKIPDEELRQACEKFDESKEIAESSMFNLLEMDIEQVSQLSALVQAQLEYHKQAVQILQQVTVRLEERIRQA
modifications: Alexa Fluor 488 C5-maleimide on the introduced Cys 187
- stoichiometry N: 2
